{
  "source": "paper PMC12344693",
  "about": "“Human Milk Oligosaccharides Multivalently Presented on Defined Synthetic Neo-Glycoproteins Are Nanomolar Ligands of Tandem-Repeat Galectins” (Biomacromolecules, 2025)",
  "key": {"Gal-4 [1]": {"target": "T1, Gal-4 (Homo sapiens, UniProt P56470)", "T1 construct": "Full-length recombinant human galectins (Gal-1, Gal-3, Gal-4, Gal-8, and Gal-9) for ELISA assays; made in house; host or cells: E. coli Rosetta 2(DE3)pLysS", "T1 sequence (P56470 1-323)": "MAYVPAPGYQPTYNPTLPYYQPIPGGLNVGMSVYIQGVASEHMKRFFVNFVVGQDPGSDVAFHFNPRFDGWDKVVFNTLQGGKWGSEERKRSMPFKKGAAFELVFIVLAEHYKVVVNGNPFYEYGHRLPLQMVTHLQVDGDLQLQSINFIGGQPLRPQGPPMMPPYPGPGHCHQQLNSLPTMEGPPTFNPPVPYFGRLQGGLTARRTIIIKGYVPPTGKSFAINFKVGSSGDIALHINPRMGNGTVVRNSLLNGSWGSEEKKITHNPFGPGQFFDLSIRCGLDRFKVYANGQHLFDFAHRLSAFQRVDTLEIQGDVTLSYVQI", "design": "method as in ref 11 (a number printed in a supplementary file, which may have a reference list of its own: not looked up in the article's list)", "settings": "direct ELISA; His-tagged Gal-4; read-out: KD for ASF, His-tag; cited from earlier work"}, "Gal-9 [2]": {"target": "T2, Gal-9 (Homo sapiens, UniProt O00182, A222P/DEL149-219)", "T2 construct": "Full-length recombinant human galectins (Gal-1, Gal-3, Gal-4, Gal-8, and Gal-9) for ELISA assays; made in house; host or cells: E. coli Rosetta 2(DE3)pLysS", "T2 sequence (O00182 with tags, fused parts or gaps DEL149-219/A222P)": "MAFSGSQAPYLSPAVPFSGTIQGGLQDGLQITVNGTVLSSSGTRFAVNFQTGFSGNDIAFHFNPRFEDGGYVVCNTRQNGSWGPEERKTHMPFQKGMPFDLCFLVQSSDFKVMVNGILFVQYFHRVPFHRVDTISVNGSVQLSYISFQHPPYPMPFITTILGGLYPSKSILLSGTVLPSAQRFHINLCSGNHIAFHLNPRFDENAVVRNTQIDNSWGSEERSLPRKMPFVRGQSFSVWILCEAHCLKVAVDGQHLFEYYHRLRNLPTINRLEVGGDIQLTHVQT", "design": "method as in ref 19 (a number printed in a supplementary file, which may have a reference list of its own: not looked up in the article's list)", "settings": "direct ELISA; His-tagged Gal-9; read-out: KD for ASF, His-tag; cited from earlier work"}, "Gal-4C [3]": {"target": "T3, Gal-4C (Homo sapiens, UniProt P56470)", "T3 construct": "Tandem-repeat galectins consist of an N-terminal and a C-terminal carbohydrate recognition domain (CRD) interconnected with a peptide linker; His-tag; made in house; host or cells: E. coli", "T3 sequence (P56470 194-323 limits assumed)": "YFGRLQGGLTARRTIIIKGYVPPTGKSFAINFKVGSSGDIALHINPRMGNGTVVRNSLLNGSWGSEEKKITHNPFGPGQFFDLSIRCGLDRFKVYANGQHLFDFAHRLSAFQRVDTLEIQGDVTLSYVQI", "design": "method as in ref 11 (a number printed in a supplementary file, which may have a reference list of its own: not looked up in the article's list)", "settings": "direct ELISA; His-tagged Gal-4C; read-out: KD for ASF, His-tag; cited from earlier work"}, "Gal-8 [4]": {"target": "T4, Gal-8 (Homo sapiens, UniProt O00214)", "T4 construct": "Full-length recombinant human galectins (Gal-1, Gal-3, Gal-4, Gal-8, and Gal-9) for ELISA assays; made in house; host or cells: E. coli Rosetta 2(DE3)pLysS", "T4 sequence (O00214 1-317)": "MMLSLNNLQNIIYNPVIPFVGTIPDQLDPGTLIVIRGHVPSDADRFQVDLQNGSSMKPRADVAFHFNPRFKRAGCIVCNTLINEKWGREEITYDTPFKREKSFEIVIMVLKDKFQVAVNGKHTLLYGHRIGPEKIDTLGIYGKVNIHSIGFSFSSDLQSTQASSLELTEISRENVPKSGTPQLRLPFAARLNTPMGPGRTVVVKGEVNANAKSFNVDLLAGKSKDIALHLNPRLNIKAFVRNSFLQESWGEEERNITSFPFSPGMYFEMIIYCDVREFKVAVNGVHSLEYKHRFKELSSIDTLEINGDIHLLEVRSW", "design": "method as in ref 19 (a number printed in a supplementary file, which may have a reference list of its own: not looked up in the article's list)", "settings": "direct ELISA; His-tagged Gal-8; read-out: KD for ASF, His-tag; cited from earlier work"}, "Gal-4N [5]": {"target": "T5, Gal-4N (Homo sapiens, UniProt P56470)", "T5 construct": "Tandem-repeat galectins consist of an N-terminal and a C-terminal carbohydrate recognition domain (CRD) interconnected with a peptide linker; His-tag; made in house; host or cells: E. coli", "T5 sequence (P56470 19-150 limits assumed)": "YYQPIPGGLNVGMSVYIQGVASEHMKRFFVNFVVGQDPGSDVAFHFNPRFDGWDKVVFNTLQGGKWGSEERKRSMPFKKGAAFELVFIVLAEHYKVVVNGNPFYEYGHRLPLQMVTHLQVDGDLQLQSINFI", "design": "method as in ref 11 (a number printed in a supplementary file, which may have a reference list of its own: not looked up in the article's list)", "settings": "direct ELISA; His-tagged Gal-4N; read-out: KD for ASF, His-tag; cited from earlier work"}, "Gal-4N [6]": {"target": "T5, Gal-4N", "test": "direct ELISA, galectin binding to immobilized asialofetuin", "settings": "AVI-tagged Gal-4N, read-out: KD for ASF, AVI-tag", "method": "(§1) detailed in the main text.\n(§2) respective galectin in EPBS (50 μL/well)."}, "Gal-9N [7]": {"target": "T6, Gal-9N (Homo sapiens, UniProt O00182, DELINS149-222HPP)", "T6 construct": "Tandem-repeat galectins consist of an N-terminal and a C-terminal carbohydrate recognition domain (CRD) interconnected with a peptide linker; His-tag; made in house; host or cells: E. coli", "T6 sequence (O00182 with tags, fused parts or gaps DELINS149-222HPP)": "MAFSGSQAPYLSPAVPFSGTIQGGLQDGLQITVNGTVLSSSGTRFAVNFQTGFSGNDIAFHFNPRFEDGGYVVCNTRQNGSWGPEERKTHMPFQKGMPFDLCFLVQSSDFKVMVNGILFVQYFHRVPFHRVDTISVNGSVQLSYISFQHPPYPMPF", "test": "direct ELISA, galectin binding to immobilized asialofetuin", "settings": "AVI-tagged Gal-9N, read-out: KD for ASF, AVI-tag", "method": "as §1, §2"}, "Gal-4 [8]": {"target": "T1, Gal-4", "test": "direct ELISA, galectin binding to immobilized asialofetuin", "settings": "AVI-tagged Gal-4, read-out: KD for ASF, AVI-tag", "method": "as §1, §2"}, "Gal-4C [9]": {"target": "T3, Gal-4C", "test": "direct ELISA, galectin binding to immobilized asialofetuin", "settings": "AVI-tagged Gal-4C, read-out: KD for ASF, AVI-tag", "method": "as §1, §2"}, "Gal-8 [10]": {"target": "T4, Gal-8", "test": "direct ELISA, galectin binding to immobilized asialofetuin", "settings": "AVI-tagged Gal-8, read-out: KD for ASF, AVI-tag", "method": "as §1, §2"}, "Gal-9C [11]": {"target": "T7, Gal-9C (Homo sapiens, UniProt O00182, A222P)", "T7 construct": "Tandem-repeat galectins consist of an N-terminal and a C-terminal carbohydrate recognition domain (CRD) interconnected with a peptide linker; His-tag; made in house; host or cells: E. coli", "T7 sequence (O00182 220-355 A222P)": "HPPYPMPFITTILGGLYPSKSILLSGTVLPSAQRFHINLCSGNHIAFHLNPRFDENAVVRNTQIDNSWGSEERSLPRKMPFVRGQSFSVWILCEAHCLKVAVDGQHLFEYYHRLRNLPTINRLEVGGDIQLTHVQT", "test": "direct ELISA, galectin binding to immobilized asialofetuin", "settings": "AVI-tagged Gal-9C, read-out: KD for ASF, AVI-tag", "method": "as §1, §2"}, "Gal-9 [12]": {"target": "T2, Gal-9", "test": "direct ELISA, galectin binding to immobilized asialofetuin", "settings": "AVI-tagged Gal-9, read-out: KD for ASF, AVI-tag", "method": "as §1, §2"}, "Gal-8N [13]": {"target": "T8, Gal-8N (Homo sapiens, UniProt O00214)", "T8 construct": "Tandem-repeat galectins consist of an N-terminal and a C-terminal carbohydrate recognition domain (CRD) interconnected with a peptide linker; His-tag; made in house; host or cells: E. coli", "T8 sequence (O00214 19-152 limits assumed)": "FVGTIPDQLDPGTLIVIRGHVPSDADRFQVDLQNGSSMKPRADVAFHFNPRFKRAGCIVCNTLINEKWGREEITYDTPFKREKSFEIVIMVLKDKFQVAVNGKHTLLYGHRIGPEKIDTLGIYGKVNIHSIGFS", "test": "direct ELISA, galectin binding to immobilized asialofetuin", "settings": "AVI-tagged Gal-8N, read-out: KD for ASF, AVI-tag", "method": "as §1, §2"}, "Gal-8C [14]": {"target": "T9, Gal-8C (Homo sapiens, UniProt O00214)", "T9 construct": "Tandem-repeat galectins consist of an N-terminal and a C-terminal carbohydrate recognition domain (CRD) interconnected with a peptide linker; His-tag; made in house; host or cells: E. coli", "T9 sequence (O00214 187-317 limits assumed)": "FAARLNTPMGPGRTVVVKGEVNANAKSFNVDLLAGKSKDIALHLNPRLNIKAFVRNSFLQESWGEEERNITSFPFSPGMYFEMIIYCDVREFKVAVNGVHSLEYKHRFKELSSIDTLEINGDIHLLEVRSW", "test": "direct ELISA, galectin binding to immobilized asialofetuin", "settings": "AVI-tagged Gal-8C, read-out: KD for ASF, AVI-tag", "method": "as §1, §2"}, "Gal-8C [15]": {"target": "T9, Gal-8C", "design": "method as in ref 19 (a number printed in a supplementary file, which may have a reference list of its own: not looked up in the article's list)", "settings": "direct ELISA; His-tagged Gal-8C; read-out: KD for ASF, His-tag; cited from earlier work"}, "Gal-9N [16]": {"target": "T6, Gal-9N", "design": "method as in ref 19 (a number printed in a supplementary file, which may have a reference list of its own: not looked up in the article's list)", "settings": "direct ELISA; His-tagged Gal-9N; read-out: KD for ASF, His-tag; cited from earlier work"}, "Gal-8N [17]": {"target": "T8, Gal-8N", "design": "method as in ref 19 (a number printed in a supplementary file, which may have a reference list of its own: not looked up in the article's list)", "settings": "direct ELISA; His-tagged Gal-8N; read-out: KD for ASF, His-tag; cited from earlier work"}, "Gal-9C [18]": {"target": "T7, Gal-9C", "design": "method as in ref 19 (a number printed in a supplementary file, which may have a reference list of its own: not looked up in the article's list)", "settings": "direct ELISA; His-tagged Gal-9C; read-out: KD for ASF, His-tag; cited from earlier work"}},
  "note": "Read-outs that look alike come from different tables or passages of the source.",
  "data": [
    {"substance": "ASF: asialofetuin, glycoprotein immobilized on ELISA plates as galectin ligand", "values": [
      {"measurement": "Kd", "setting": "Gal-4 [1]", "value": "3.3 ± 1.1", "unit": "µM"},
      {"measurement": "Kd", "setting": "Gal-9 [2]", "value": "0.15 ± 0.04", "unit": "µM"},
      {"measurement": "Kd", "setting": "Gal-4C [3]", "value": "19 ± 2", "unit": "µM"},
      {"measurement": "Kd", "setting": "Gal-8 [4]", "value": "0.14 ± 0.06", "unit": "µM"},
      {"measurement": "Kd", "setting": "Gal-4N [5]", "value": "38 ± 3", "unit": "µM"},
      {"measurement": "Kd", "setting": "Gal-4N [6]", "value": "17 ± 2", "unit": "µM"},
      {"measurement": "Kd", "setting": "Gal-9N [7]", "value": "11 ± 4", "unit": "µM"},
      {"measurement": "Kd", "setting": "Gal-4 [8]", "value": "2.3 ± 0.8", "unit": "µM"},
      {"measurement": "Kd", "setting": "Gal-4C [9]", "value": "6.5 ± 1.2", "unit": "µM"},
      {"measurement": "Kd", "setting": "Gal-8 [10]", "value": "0.32 ± 0.13", "unit": "µM"},
      {"measurement": "Kd", "setting": "Gal-9C [11]", "value": "4.9 ± 0.4", "unit": "µM"},
      {"measurement": "Kd", "setting": "Gal-9 [12]", "value": "0.18 ± 0.05", "unit": "µM"},
      {"measurement": "Kd", "setting": "Gal-8N [13]", "value": "4.6 ± 1.3", "unit": "µM"},
      {"measurement": "Kd", "setting": "Gal-8C [14]", "value": "11 ± 2", "unit": "µM"},
      {"measurement": "Kd", "setting": "Gal-8C [15]", "value": "9.4 ± 0.4", "unit": "µM"},
      {"measurement": "Kd", "setting": "Gal-9N [16]", "value": "25 ± 6", "unit": "µM"},
      {"measurement": "Kd", "setting": "Gal-8N [17]", "value": "2.3 ± 0.5", "unit": "µM"},
      {"measurement": "Kd", "setting": "Gal-9C [18]", "value": "3.6 ± 0.5", "unit": "µM"}
    ]}
  ]
}
